Results: article PMC9482650, “Quantitative fragmentomics allow affinity mapping of interactomes” (Nature Communications, 2022)

T1: CARD11, Q9BXL7
T1 sequence (Q9BXL7 662-765, limits assumed, looked up): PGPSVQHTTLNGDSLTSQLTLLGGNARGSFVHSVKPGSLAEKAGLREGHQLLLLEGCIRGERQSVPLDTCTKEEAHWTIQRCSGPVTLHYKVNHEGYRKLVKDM

T2: DFNB31_1, Q9P202
T2 sequence (Q9P202 135-233, limits assumed, looked up): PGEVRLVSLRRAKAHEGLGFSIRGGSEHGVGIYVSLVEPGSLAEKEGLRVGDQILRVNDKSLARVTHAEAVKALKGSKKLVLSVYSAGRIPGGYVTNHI

T3: GRIP1_2, Q9Y3R0
T3 sequence (Q9Y3R0 145-248, limits assumed, looked up): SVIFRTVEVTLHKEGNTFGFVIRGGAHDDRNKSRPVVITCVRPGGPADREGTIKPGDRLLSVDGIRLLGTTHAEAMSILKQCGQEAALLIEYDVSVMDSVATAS

T4: GRIP1_7, Q9Y3R0
T4 sequence (Q9Y3R0 999-1096, limits assumed, looked up): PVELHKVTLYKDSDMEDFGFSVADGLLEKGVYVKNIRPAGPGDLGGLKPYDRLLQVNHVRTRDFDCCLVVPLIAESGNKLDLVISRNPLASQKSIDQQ

T5: LRRC7, Q96NW7
T5 sequence (Q96NW7 1440-1537, limits assumed, looked up): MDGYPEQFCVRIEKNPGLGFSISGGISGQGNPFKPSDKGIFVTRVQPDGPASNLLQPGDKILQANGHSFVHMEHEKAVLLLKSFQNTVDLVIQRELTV

T6: MPDZ_10, O75970
T6 sequence (O75970 1624-1722, limits assumed, looked up): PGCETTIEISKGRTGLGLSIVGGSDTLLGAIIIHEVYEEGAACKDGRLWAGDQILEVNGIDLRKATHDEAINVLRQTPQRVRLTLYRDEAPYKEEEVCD

T7: MPDZ_5, O75970
T7 sequence (O75970 695-796, limits assumed, looked up): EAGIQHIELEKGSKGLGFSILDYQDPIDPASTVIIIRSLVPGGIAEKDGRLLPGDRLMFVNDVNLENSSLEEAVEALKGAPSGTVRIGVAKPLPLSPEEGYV

T8: MPP6, Q9NZW5
T8 sequence (Q9NZW5 125-219, limits assumed, looked up): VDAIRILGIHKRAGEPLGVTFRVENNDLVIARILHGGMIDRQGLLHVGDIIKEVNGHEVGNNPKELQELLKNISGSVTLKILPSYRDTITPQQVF

T9: MPP7, Q5T2T1
T9 sequence (Q5T2T1 134-230, limits assumed, looked up): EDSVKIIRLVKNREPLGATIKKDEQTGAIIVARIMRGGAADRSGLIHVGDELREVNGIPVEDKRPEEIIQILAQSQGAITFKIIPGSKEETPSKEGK

T10: RADIL, Q96JH8
T10 sequence (Q96JH8 971-1071, limits assumed, looked up): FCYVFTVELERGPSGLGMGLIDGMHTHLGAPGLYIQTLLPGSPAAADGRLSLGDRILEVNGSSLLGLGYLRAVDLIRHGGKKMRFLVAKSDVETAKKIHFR

T11: RAPGEF6, Q8TEU7
T11 sequence (Q8TEU7 525-625, limits assumed, looked up): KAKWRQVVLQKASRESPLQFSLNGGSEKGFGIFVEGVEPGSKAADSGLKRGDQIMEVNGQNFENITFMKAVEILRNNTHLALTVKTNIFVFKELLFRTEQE


How the values were obtained:
Test in all cases: holdup assay
Parameters in all cases: key: below the threshold = too weak to quantify, mostly under pKd 3.1 to 4
Conditions in all cases: plain residues with an end cap or a label only (N-terminal biotin on a linker: ado-ado)
CARD11, Q9BXL7 = biological target: T1, CARD11, Q9BXL7
DFNB31_1, Q9P202 = biological target: T2, DFNB31_1, Q9P202
DLG4_2, P78352 = biological target: DLG4_2, P78352
Sequence of DLG4_2, P78352 (P78352 155-259): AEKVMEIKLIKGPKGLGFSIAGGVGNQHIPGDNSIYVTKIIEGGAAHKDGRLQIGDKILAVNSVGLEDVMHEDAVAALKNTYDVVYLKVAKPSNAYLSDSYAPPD

FRMPD2_2, Q68DX3 = biological target: FRMPD2_2, Q68DX3
Sequence of FRMPD2_2, Q68DX3 (Q68DX3 944-1038): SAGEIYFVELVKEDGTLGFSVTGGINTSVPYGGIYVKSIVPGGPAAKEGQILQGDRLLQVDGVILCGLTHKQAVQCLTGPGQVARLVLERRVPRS

FRMPD3, Q5JV73 = biological target: FRMPD3, Q5JV73
Sequence of FRMPD3, Q5JV73 (Q5JV73 12-100): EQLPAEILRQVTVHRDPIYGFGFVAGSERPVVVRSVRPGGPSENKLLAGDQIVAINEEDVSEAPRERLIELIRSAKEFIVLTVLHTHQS

FRMPD4, Q14CM0 = biological target: FRMPD4, Q14CM0
Sequence of FRMPD4, Q14CM0 (Q14CM0 67-160): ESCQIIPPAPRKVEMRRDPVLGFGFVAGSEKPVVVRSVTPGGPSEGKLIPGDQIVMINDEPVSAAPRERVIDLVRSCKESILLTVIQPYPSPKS

GOPC, Q9HD26 = biological target: GOPC, Q9HD26
GRIP1_2, Q9Y3R0 = biological target: T3, GRIP1_2, Q9Y3R0
GRIP1_7, Q9Y3R0 = biological target: T4, GRIP1_7, Q9Y3R0
GRIP2_6, Q9C0E4 = biological target: GRIP2_6, Q9C0E4
Sequence of GRIP2_6, Q9C0E4 (Q9C0E4 648-740): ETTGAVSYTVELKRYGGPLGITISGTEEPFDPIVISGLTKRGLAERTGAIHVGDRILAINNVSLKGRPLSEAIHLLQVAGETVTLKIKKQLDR

HTRA2, O43464 = biological target: HTRA2, O43464
Sequence of HTRA2, O43464 (O43464 355-458): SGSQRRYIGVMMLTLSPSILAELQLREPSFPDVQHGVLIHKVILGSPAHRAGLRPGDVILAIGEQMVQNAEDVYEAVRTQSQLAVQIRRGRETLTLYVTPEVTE

IL16_1, Q14005 = biological target: IL16_1, Q14005
Sequence of IL16_1, Q14005 (Q14005 210-306): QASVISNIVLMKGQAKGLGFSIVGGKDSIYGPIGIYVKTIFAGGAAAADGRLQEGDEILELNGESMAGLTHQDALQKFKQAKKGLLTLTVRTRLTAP

Inadl_2, Q8NI35 = biological target: Inadl_2, Q8NI35
Sequence of Inadl_2, Q8NI35 (Q8NI35 238-335): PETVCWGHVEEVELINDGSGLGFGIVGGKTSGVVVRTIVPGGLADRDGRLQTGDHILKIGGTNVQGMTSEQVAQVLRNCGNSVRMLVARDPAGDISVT

Inadl_4, Q8NI35 = biological target: Inadl_4, Q8NI35
Sequence of Inadl_4, Q8NI35 (Q8NI35 547-651): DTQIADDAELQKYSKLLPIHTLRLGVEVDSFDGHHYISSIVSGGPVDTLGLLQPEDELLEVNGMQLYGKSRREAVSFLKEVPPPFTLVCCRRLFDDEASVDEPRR

LDB3, O75112 = biological target: LDB3, O75112
Sequence of LDB3, O75112 (O75112 1-94): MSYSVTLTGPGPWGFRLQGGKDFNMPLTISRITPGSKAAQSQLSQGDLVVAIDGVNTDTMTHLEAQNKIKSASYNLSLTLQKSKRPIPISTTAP

LRRC7, Q96NW7 = biological target: T5, LRRC7, Q96NW7
MAGI2_5, Q86UL8 = biological target: MAGI2_5, Q86UL8
Sequence of MAGI2_5, Q86UL8 (Q86UL8 915-1017): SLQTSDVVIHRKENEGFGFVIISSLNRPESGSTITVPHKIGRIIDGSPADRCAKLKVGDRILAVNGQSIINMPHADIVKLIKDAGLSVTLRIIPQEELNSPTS

MAGI3_2, Q5TCQ9 = biological target: MAGI3_2, Q5TCQ9
Sequence of MAGI3_2, Q5TCQ9 (Q5TCQ9 398-503): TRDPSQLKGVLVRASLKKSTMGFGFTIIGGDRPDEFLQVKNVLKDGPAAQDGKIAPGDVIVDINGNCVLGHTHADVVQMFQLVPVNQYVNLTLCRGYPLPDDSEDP

MAST1, Q9Y2H9 = biological target: MAST1, Q9Y2H9
Sequence of MAST1, Q9Y2H9 (Q9Y2H9 962-1065): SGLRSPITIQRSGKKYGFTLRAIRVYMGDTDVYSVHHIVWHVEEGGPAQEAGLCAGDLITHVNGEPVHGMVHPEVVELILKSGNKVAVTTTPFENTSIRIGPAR

MPDZ_10, O75970 = biological target: T6, MPDZ_10, O75970
MPDZ_5, O75970 = biological target: T7, MPDZ_5, O75970
MPP6, Q9NZW5 = biological target: T8, MPP6, Q9NZW5
MPP7, Q5T2T1 = biological target: T9, MPP7, Q5T2T1
NHERF4_1, Q86UT5-2 = biological target: NHERF4_1, Q86UT5-2
Sequence of NHERF4_1, Q86UT5-2 (Q86UT5 other isoform, or with tags, fused parts or gaps): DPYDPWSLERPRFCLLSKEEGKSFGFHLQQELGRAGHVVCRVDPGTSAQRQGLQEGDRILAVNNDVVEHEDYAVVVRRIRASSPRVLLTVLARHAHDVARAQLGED

RADIL, Q96JH8 = biological target: T10, RADIL, Q96JH8
RAPGEF6, Q8TEU7 = biological target: T11, RAPGEF6, Q8TEU7

Binder	pKd (CARD11, Q9BXL7)	pKd (DFNB31_1, Q9P202)	pKd (DLG4_2, P78352)	pKd (FRMPD2_2, Q68DX3)	pKd (FRMPD3, Q5JV73)	pKd (FRMPD4, Q14CM0)	pKd (GOPC, Q9HD26)	pKd (GRIP1_2, Q9Y3R0)	pKd (GRIP1_7, Q9Y3R0)	pKd (GRIP2_6, Q9C0E4)	pKd (HTRA2, O43464)	pKd (IL16_1, Q14005)	pKd (Inadl_2, Q8NI35)	pKd (Inadl_4, Q8NI35)	pKd (LDB3, O75112)	pKd (LRRC7, Q96NW7)	pKd (MAGI2_5, Q86UL8)	pKd (MAGI3_2, Q5TCQ9)	pKd (MAST1, Q9Y2H9)	pKd (MPDZ_10, O75970)	also measured
QMNQTLPVQV [EPHB3, P54753]	below the threshold	3.51	3.66	below the threshold	below the threshold	below the threshold	3.58	3.58	below the threshold	below the threshold	3.59	below the threshold	below the threshold	below the threshold	below the threshold	below the threshold	below the threshold	below the threshold	3.93	3.49	pKd (MPDZ_5, O75970): 3.84; pKd (MPP6, Q9NZW5): below the threshold; pKd (MPP7, Q5T2T1): below the threshold; pKd (NHERF4_1, Q86UT5-2): below the threshold; pKd (RADIL, Q96JH8): 4.44; pKd (RAPGEF6, Q8TEU7): below the threshold
PKRSFIESNV [TANC1, Q9C0D5]	below the threshold	3.83	5.04	3.8	below the threshold	below the threshold	3.85	below the threshold	below the threshold	below the threshold	below the threshold	4.83	below the threshold	below the threshold	below the threshold	4.61	4.41	5.24	4.7	below the threshold	pKd (MPDZ_5, O75970): below the threshold; pKd (MPP6, Q9NZW5): 3.76; pKd (MPP7, Q5T2T1): below the threshold; pKd (NHERF4_1, Q86UT5-2): below the threshold; pKd (RADIL, Q96JH8): 3.67; pKd (RAPGEF6, Q8TEU7): below the threshold
IPLDGETEEL [MYOZ1, Q9NP98]	below the threshold	below the threshold	below the threshold	below the threshold	below the threshold	4.03	below the threshold	below the threshold	below the threshold	below the threshold	below the threshold	below the threshold	below the threshold	below the threshold	4.46	below the threshold	below the threshold	below the threshold	4.1	below the threshold	pKd (MPDZ_5, O75970): below the threshold; pKd (MPP6, Q9NZW5): below the threshold; pKd (MPP7, Q5T2T1): below the threshold; pKd (NHERF4_1, Q86UT5-2): 4.2; pKd (RADIL, Q96JH8): below the threshold; pKd (RAPGEF6, Q8TEU7): below the threshold
DDEDRLVIEI [ZNF831, Q5JPB2]	below the threshold	below the threshold	below the threshold	below the threshold	below the threshold	below the threshold	below the threshold	below the threshold	below the threshold	below the threshold	below the threshold	below the threshold	3.57	below the threshold	3.57	below the threshold	below the threshold	below the threshold	below the threshold	below the threshold	pKd (MPDZ_5, O75970): below the threshold; pKd (MPP6, Q9NZW5): below the threshold; pKd (MPP7, Q5T2T1): 3.64; pKd (NHERF4_1, Q86UT5-2): below the threshold; pKd (RADIL, Q96JH8): 4.02; pKd (RAPGEF6, Q8TEU7): below the threshold
